# Reference: US20100145008A1 (published 2010)
# Target: T1, lysozyme (Gallus gallus (Chicken), UniProt P00698 19-147)
# T1 construct: also called Lysozyme (14.3 kDa)
# Test: Biacore, preliminary data
# T1 sequence (P00698 19-147 limits assumed, form in doubt): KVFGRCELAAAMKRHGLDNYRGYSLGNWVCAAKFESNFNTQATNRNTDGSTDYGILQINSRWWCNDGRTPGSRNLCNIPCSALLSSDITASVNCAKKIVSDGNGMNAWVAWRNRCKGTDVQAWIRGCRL
row,Binder,Kd [nM]
1,Lys_H4 (designed binder) GSVKVKFFWNGEEKEVDTSKIVWVKRAGKCVLFIYDDNGKNGYGDVTEKDAPKELLDMLARAEREKKL,~3
2,Lys_H8 (designed binder) GSVKVKFVMCGEEKEVDTSKIITVKRTGKEVDFLYDDNGKNGYGTVYEKDAPKELLDMLARAEREKKL,~25
3,Lys_B3 (designed binder) GSVKVKFDLCGEEKEVDTSKIVYVARDGKTVLFMYDDNGKSGRGEVSEKDAPKELLDMLARAEREKKL,~15
